Experimental data reported in the supplement of paper PMC7877785.
± gives the uncertainty stated by the source.

Test: self-splicing fitness, log relative to wild type (ln ratio); higher = more splicing; Tetrahymena group I intron in knt gene, E. coli kanamycin selection, DiMSum; sequences stand for … in CUCUCU…GGAGGGAAAAGUUAUCAGGCAUGCACCUGGUAGCUAGUCUUUAAACCAAUAGAUUGCAUCGGUUUAAAAGGCAAGACCGUCAAAUUGCGGGAAAGGGGUCAACAGCCGUUCAGUACCAAGUCUCAGGGGAAACUUUGAGAUGGCCUUGCAAAGGGUAUGGUAAUAAGCUGACGGACAUGGUCCUAACCACGCAGCCAAGUCCUAAGUCAACAGAUCUUCUGUUGAUAUGGAUGCAGUUCACAGACUAAAUGUCGGUCGGGGAAGAUGUAUUCUUCUCAUAAGAUAUAGUCGGACCUCUCCUUAAUGGGAGCUAGCGGAUGAAGUGAUGCAACACUGGAGCCGCUGGGAACUAAUUUGUAUGCGAAAGUAUAUUGAUUAGUUUUGGAGUACUCGUGGUCG
Method in brief: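 Library with all eight P1ex-region intron nucleotides randomised, intron inside the knt kanamycin-resistance gene on pET-22b(+), in E. coli BL21(DE3). Cells grew overnight at 37°C or 30°C on LB agar with or without 25 μg/mL kanamycin (plus 100 μg/mL carbenicillin, 50 μM IPTG, 0.2% rhamnose), in six replicate transformations. Pooled colonies were amplicon-sequenced on Illumina HiSeq 2500. DiMSum fitness is the error-weighted combination of wild-type-normalised replicate fold changes, kanamycin versus none.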

Sequence	self-splicing fitness (ln) (30 °C)	self-splicing fitness (ln) (37 °C)
AGCCAGCAAUAUUACGGGGA	-1.87 ± 0.12	-0.713 ± 0.11
AGCCAGCAAUAUUACGGUCA	-0.0408 ± 0.09	0.4 ± 0.093
AGCCAGCAAUAUUACGUCUA	-3 ± 0.21	-2.05 ± 0.19
AGCCAGCAAUAUUACGUGUG	-3.01 ± 0.09	-1.61 ± 0.086
AGCGAGCAAUAUUACGACGG	-3.17 ± 0.44	-1.81 ± 0.26
AGCGAGCAAUAUUACGAGGC	-3.16 ± 0.44	
AGCGAGCAAUAUUACGAGUC	-3.91 ± 0.42	-2.24 ± 0.24
AGCGAGCAAUAUUACGAUCC		-0.865 ± 0.49
AGCGAGCAAUAUUACGAUCU	-0.233 ± 0.09	-0.579 ± 0.12
AGCGAGCAAUAUUACGAUGG	-4.61 ± 0.42	-2.68 ± 0.24
AGCGAGCAAUAUUACGCACG	-3.64 ± 0.45	
AGCGAGCAAUAUUACGCACU	-1.62 ± 0.2	-1.37 ± 0.29
AGCGAGCAAUAUUACGCCAC	-1.84 ± 0.39	
AGCGAGCAAUAUUACGCGCA	-0.891 ± 0.23	-0.546 ± 0.2
AGCGAGCAAUAUUACGCUAU		-2.87 ± 0.24
AGCGAGCAAUAUUACGCUCA	-2.59 ± 0.21	-2.5 ± 0.26
AGCGAGCAAUAUUACGGAAC	-3.53 ± 0.32	-1.5 ± 0.29
AGCGAGCAAUAUUACGGCAC	-1.57 ± 0.22	-0.495 ± 0.3
AGCGAGCAAUAUUACGGCGG	-1.1 ± 0.19	-1.8 ± 0.24
AGCGAGCAAUAUUACGGCGU	-0.762 ± 0.11	-0.808 ± 0.093
AGCGAGCAAUAUUACGGCUG	-1.47 ± 0.12	-0.625 ± 0.15
AGCGAGCAAUAUUACGGGUU	-2.83 ± 0.2	-1.09 ± 0.15
AGCGAGCAAUAUUACGGUGU	-2.55 ± 0.24	-2.37 ± 0.24
AGCGAGCAAUAUUACGUAAG		-1.76 ± 0.37
AGCGAGCAAUAUUACGUAAU	-3.21 ± 0.14	-2.04 ± 0.14

Sequence	self-splicing fitness (ln) (30 °C)	self-splicing fitness (ln) (37 °C)
AGCGAGCAAUAUUACGUAGU	-4.11 ± 0.16	-1.11 ± 0.13
AGCGAGCAAUAUUACGUCCC	-1 ± 0.11	-0.699 ± 0.14
AGCGAGCAAUAUUACGUGAA	-3.44 ± 0.19	-1.23 ± 0.2
AGCGAGCAAUAUUACGUUAA	-3.86 ± 0.37	-2.67 ± 0.3
AGCGAGCAAUAUUACGUUCA	-1.81 ± 0.096	-0.891 ± 0.091
AGCGAGCAAUAUUACGUUGU	-3.39 ± 0.13	-3.31 ± 0.15
AGCUAGCAAUAUUACGAAGC	-3.35 ± 0.22	-2.43 ± 0.3
AGCUAGCAAUAUUACGAAUA	-3.3 ± 0.27	-2.35 ± 0.24
AGCUAGCAAUAUUACGAGAU	-3.17 ± 0.19	-1.22 ± 0.16
AGCUAGCAAUAUUACGAGGA	-3.9 ± 0.35	-2.42 ± 0.42
AGCUAGCAAUAUUACGAGGC	-3.21 ± 0.24	-1.96 ± 0.21
AGCUAGCAAUAUUACGAUGC	-2.47 ± 0.12	-2.12 ± 0.17
AGCUAGCAAUAUUACGCAAU	-1.79 ± 0.19	-1.77 ± 0.18
AGCUAGCAAUAUUACGCCUU	-1.7 ± 0.1	-0.609 ± 0.08
AGCUAGCAAUAUUACGCUGA	-2.63 ± 0.18	-0.955 ± 0.09
AGCUAGCAAUAUUACGGCAA	-0.629 ± 0.081	-0.284 ± 0.097
AGCUAGCAAUAUUACGGGAG	-1.59 ± 0.13	-2.54 ± 0.19
AGCUAGCAAUAUUACGGGAU	-2.04 ± 0.11	-1.49 ± 0.13
AGCUAGCAAUAUUACGGGCC	-3.59 ± 0.26	-2.51 ± 0.24
AGCUAGCAAUAUUACGGUAG	-3.91 ± 0.27	-3.18 ± 0.23
AGCUAGCAAUAUUACGGUCC	-0.52 ± 0.1	-0.0902 ± 0.14
AGCUAGCAAUAUUACGGUUG	-1.95 ± 0.075	-1.37 ± 0.11
AGCUAGCAAUAUUACGUAGC	-1.84 ± 0.12	-2.46 ± 0.25
AGCUAGCAAUAUUACGUAUC	-3.55 ± 0.18	-3.09 ± 0.24
AGCUAGCAAUAUUACGUCAA	-4.05 ± 0.41	-2 ± 0.16

Sequence	self-splicing fitness (ln) (30 °C)	self-splicing fitness (ln) (37 °C)
AGCUAGCAAUAUUACGUCCU	-0.19 ± 0.083	0.188 ± 0.11
AGCUAGCAAUAUUACGUUCA	-1.59 ± 0.12	-0.979 ± 0.15
AGGAAGCAAUAUUACGAAAA		-2.42 ± 0.41
AGGAAGCAAUAUUACGAAGG	-2.92 ± 0.28	-2.8 ± 0.38
AGGAAGCAAUAUUACGACCC	-0.677 ± 0.23	-1.73 ± 0.26
AGGAAGCAAUAUUACGAGAA		-1.39 ± 0.32
AGGAAGCAAUAUUACGCACG	-0.986 ± 0.15	-1.23 ± 0.18
AGGAAGCAAUAUUACGCAUU	-3.7 ± 0.35	-2.13 ± 0.26
AGGAAGCAAUAUUACGCCAA	-1.65 ± 0.35	-1.5 ± 0.31
AGGAAGCAAUAUUACGCCAG	-2.89 ± 0.18	-1.81 ± 0.22
AGGAAGCAAUAUUACGCCCU	-2.95 ± 0.33	
AGGAAGCAAUAUUACGGAAU	-2.88 ± 0.22	-2.14 ± 0.3
AGGAAGCAAUAUUACGGCAC	-1.55 ± 0.14	-0.99 ± 0.14
AGGAAGCAAUAUUACGGCCG	-0.634 ± 0.12	-0.462 ± 0.19
AGGAAGCAAUAUUACGGCCU	-2.44 ± 0.37	-1.5 ± 0.3
AGGAAGCAAUAUUACGGCUC	-1.07 ± 0.14	-0.713 ± 0.19
AGGAAGCAAUAUUACGGUUC	-2.78 ± 0.21	-2.24 ± 0.2
AGGAAGCAAUAUUACGUCUA	-0.335 ± 0.092	-0.143 ± 0.1
AGGAAGCAAUAUUACGUCUU	-2.07 ± 0.062	-1.59 ± 0.08
AGGAAGCAAUAUUACGUGCC	-1.72 ± 0.22	-0.175 ± 0.23
AGGAAGCAAUAUUACGUUUG	-3.55 ± 0.17	-2.48 ± 0.19
AGGCAGCAAUAUUACGAAAA	-3.77 ± 0.25	-2.26 ± 0.15
AGGCAGCAAUAUUACGAAAC	-3.58 ± 0.22	-1.8 ± 0.19
AGGCAGCAAUAUUACGAACU	0.174 ± 0.095	0.719 ± 0.12
AGGCAGCAAUAUUACGACAU	-0.21 ± 0.012	-0.101 ± 0.032

Sequence	self-splicing fitness (ln) (30 °C)	self-splicing fitness (ln) (37 °C)
AGGCAGCAAUAUUACGAUAG	-3.08 ± 0.34	-2.15 ± 0.36
AGGCAGCAAUAUUACGAUGG	-3.56 ± 0.19	-2.44 ± 0.22
AGGCAGCAAUAUUACGAUUA	-1.12 ± 0.1	-0.936 ± 0.095
AGGCAGCAAUAUUACGCAGA	-1.37 ± 0.12	-0.754 ± 0.11
AGGCAGCAAUAUUACGCGCU	-3.04 ± 0.15	-1.03 ± 0.1
AGGCAGCAAUAUUACGCGUC	-3.34 ± 0.3	-2.54 ± 0.3
AGGCAGCAAUAUUACGCUUA	-0.31 ± 0.1	-0.299 ± 0.099
AGGCAGCAAUAUUACGGAAG	-2.92 ± 0.13	-1.98 ± 0.15
AGGCAGCAAUAUUACGGAGA	-2.91 ± 0.14	-2.61 ± 0.17
AGGCAGCAAUAUUACGGCAC	-0.991 ± 0.085	-0.533 ± 0.13
AGGCAGCAAUAUUACGGCAU	-0.346 ± 0.062	0.15 ± 0.09
AGGCAGCAAUAUUACGUAAG	-1.77 ± 0.13	-0.486 ± 0.17
AGGCAGCAAUAUUACGUAUG	-3.27 ± 0.27	-1.53 ± 0.15
AGGCAGCAAUAUUACGUCCA	-0.459 ± 0.051	0.0124 ± 0.078
AGGCAGCAAUAUUACGUCCC		0.266 ± 0.3
AGGCAGCAAUAUUACGUCUA	-0.469 ± 0.081	0.262 ± 0.091
AGGCAGCAAUAUUACGUGAG	-0.654 ± 0.066	-0.526 ± 0.09
AGGCAGCAAUAUUACGUGGA	-4.02 ± 0.26	-2.6 ± 0.14
AGGCAGCAAUAUUACGUUCU	-1.86 ± 0.08	-0.817 ± 0.09
AGGGAGCAAUAUUACGAACA	-3.22 ± 0.45	-1.72 ± 0.31
AGGGAGCAAUAUUACGAAUC		-2.43 ± 0.29
AGGGAGCAAUAUUACGACAU	-2.607 ± 0.025	-2.17 ± 0.041
AGGGAGCAAUAUUACGACUG	-2.15 ± 0.24	0.0208 ± 0.21
AGGGAGCAAUAUUACGAGGG		-2.2 ± 0.5
